The target of assay [1] is T1, DNA-Binding Protein from Starved Cells (Dps) of Campylobacter jejuni (Campylobacter jejuni, UniProt Q0P891 1-149).
T1 construct: also called Dps of C. jejuni
Nature of the assay: sandwich immunochromatographic strip, immobilized CL30Camp and labeled CL30Camp, Dps at 1.85 ng/mL, read by eye after 10 min.

Assay [2] deals with T2, DNA-Binding Protein from Starved Cells (Dps) of Campylobacter coli (Campylobacter coli).
T2 construct: also called Dps of C. coli
Nature of the assay: sandwich immunochromatographic strip, immobilized CL30Camp and labeled CL30Camp, Dps at 0.75 ng/mL, read by eye after 10 min (+/- = weak positive response).

B1: CL30Camp monoclonal antibody (antibody, V domains shown)
VH: QVQLKQSGPGLVQPSQSLSITCTVSGFSLTSSGVHWVRQSPGKGLEWLGVIWRGGSTDYNAAFMSRLSITKDNSKSQVFFKMNSLQPDDTAIYYCAKNYYYGTSPDYFDYWGQGTTLTVSS
VL: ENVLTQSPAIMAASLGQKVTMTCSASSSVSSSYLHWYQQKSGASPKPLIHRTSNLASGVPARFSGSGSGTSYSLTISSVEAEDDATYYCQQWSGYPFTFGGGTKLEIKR
notes: also called CL30Camp/CL30Camp (immobilized/labeled pair in the test device)
With B1, the binding result in assay [1] and in assay [2] was “binds” each time.

The values are drawn from patent US20200317756A1 (CERTEST BIOTEC S L, published 2020).
